{"source": "patent US20130209454A1", "about": "(CALIFORNIA INSTITUTE OF TECHNOLOGY, published 2013)", "binders": {"B1": {"name": "NIH45-46 IgG (antibody, V domains shown)", "VH": "QVRLSQSGGQMKKPGESMRLSCRASGYEFLNCPINWIRLAPGRRPEWMGWLKPRGGAVNYARKFQGRVTMTRDVYSDTAFLELRSLTSDDTAVYFCTRGKYCTARDYYNWDFEHWGRGAPVTVSS", "VL": "EIVLTQSPATLSLSPGETAIISCRTSQSGSLAWYQQRPGQAPRLVIYSGSTRAAGIPDRFSGSRWGADYNLSISNLESGDFGVYYCQQYEFFGQGTKVQVDI"}}, "assay_in_all_cases": "cell-based or functional assay", "key": {"[1]": {"molecular_target": "HIV-1 Env of strain SC422661.8 (HIV-1)"}, "[2]": {"molecular_target": "HIV-1 Env of strain ZM53M.PB12 (HIV-1)"}, "[3]": {"molecular_target": "HIV-1 Env of strain ZM249M.PL1 (HIV-1)"}, "[4]": {"molecular_target": "HIV-1 Env of strain Q259.d2.17 (HIV-1)"}, "[5]": {"molecular_target": "HIV-1 Env of strain ZM109F.PB4 (HIV-1)"}, "[6]": {"molecular_target": "HIV-1 Env of strain CNE30 (HIV-1)"}, "[7]": {"molecular_target": "HIV-1 Env of strain CNE53 (HIV-1)"}, "[8]": {"molecular_target": "HIV-1 Env of strain 1006_11_C3_1601 (HIV-1)"}, "[9]": {"molecular_target": "HIV-1 Env of strain Q769.d22 (HIV-1)"}, "[10]": {"molecular_target": "HIV-1 Env of strain ZM197M.PB7 (HIV-1)"}, "[11]": {"molecular_target": "HIV-1 Env of strain RHPA4259.7 (HIV-1)"}, "[12]": {"molecular_target": "HIV-1 Env of strain 3016.v5.c45 (HIV-1)"}, "[13]": {"molecular_target": "HIV-1 Env of strain Q23.17 (HIV-1)"}, "[14]": {"molecular_target": "HIV-1 Env of strain HIV-16845-2.22 (HIV-1)"}, "[15]": {"molecular_target": "HIV-1 Env of strain C2101.c01 (HIV-1)"}, "[16]": {"molecular_target": "HIV-1 Env of strain Du422.1 (HIV-1)"}, "[17]": {"molecular_target": "HIV-1 Env of strain 3301.v1.c24 (HIV-1)"}, "[18]": {"molecular_target": "HIV-1 Env of strain Du156.12 (HIV-1)"}, "[19]": {"molecular_target": "HIV-1 Env of strain 231965.c01 (HIV-1)"}, "[20]": {"molecular_target": "HIV-1 Env of strain T251-18 (HIV-1)"}, "[21]": {"molecular_target": "HIV-1 Env of strain 211-9 (HIV-1)"}, "[22]": {"molecular_target": "HIV-1 Env of strain 6535.3 (HIV-1)"}, "[23]": {"molecular_target": "HIV-1 Env of strain Ce0682_E4 (HIV-1)"}, "[24]": {"molecular_target": "HIV-1 Env of strain REJO4541.67 (HIV-1)"}, "[25]": {"molecular_target": "HIV-1 Env of strain X1193_c1 (HIV-1)"}, "[26]": {"molecular_target": "HIV-1 Env of strain Ce0393_C3 (HIV-1)"}, "[27]": {"molecular_target": "HIV-1 Env of strain CNE20 (HIV-1)"}, "[28]": {"molecular_target": "HIV-1 Env of strain Q842.d12 (HIV-1)"}, "[29]": {"molecular_target": "HIV-1 Env of strain ZM247v1(Rev-) (HIV-1)"}, "[30]": {"molecular_target": "HIV-1 Env of strain WITO4160.33 (HIV-1)"}, "[31]": {"molecular_target": "HIV-1 Env of strain 231966.c02 (HIV-1)"}, "[32]": {"molecular_target": "HIV-1 Env of strain P0402_c2_11 (HIV-1)"}, "[33]": {"molecular_target": "HIV-1 Env of strain 1054_07_TC4_1499 (HIV-1)"}, "[34]": {"molecular_target": "HIV-1 Env of strain R1166.c01 (HIV-1)"}, "[35]": {"molecular_target": "HIV-1 Env of strain 620345.c01 (HIV-1)"}, "[36]": {"molecular_target": "HIV-1 Env of strain CAP210.2.00.E8 (HIV-1)"}, "[37]": {"molecular_target": "HIV-1 Env of strain AC10.0.29 (HIV-1)"}, "[38]": {"molecular_target": "HIV-1 Env of strain X2131_C1_B5 (HIV-1)"}, "[39]": {"molecular_target": "HIV-1 Env of strain TROJO4551.58 (HIV-1)"}, "[40]": {"molecular_target": "HIV-1 Env of strain 6811.v7.c18 (HIV-1)"}, "[41]": {"molecular_target": "HIV-1 Env of strain ZM214M.PL15 (HIV-1)"}, "[42]": {"molecular_target": "HIV-1 Env of strain 928-28 (HIV-1)"}, "[43]": {"molecular_target": "HIV-1 Env of strain CAP45.2.00.G3 (HIV-1)"}}}
{"binder": "B1", "values": [{"measurement": "neutralization IC50", "setting": "[1]", "value": 0.06, "unit": "mg/L"}, {"measurement": "neutralization IC50", "setting": "[2]", "value": 0.175, "unit": "mg/L"}, {"measurement": "neutralization IC50", "setting": "[3]", "value": 0.017, "unit": "mg/L"}, {"measurement": "neutralization IC50", "setting": "[4]", "value": 0.043, "unit": "mg/L"}, {"measurement": "neutralization IC50", "setting": "[5]", "value": 0.095, "unit": "mg/L"}, {"measurement": "neutralization IC50", "setting": "[6]", "value": 0.309, "unit": "mg/L"}, {"measurement": "neutralization IC50", "setting": "[7]", "value": 0.008, "unit": "mg/L"}, {"measurement": "neutralization IC50", "setting": "[8]", "value": 0.027, "unit": "mg/L"}, {"measurement": "neutralization IC50", "setting": "[9]", "value": 0.009, "unit": "mg/L"}, {"measurement": "neutralization IC50", "setting": "[10]", "value": 0.15, "unit": "mg/L"}, {"measurement": "neutralization IC50", "setting": "[11]", "value": 0.017, "unit": "mg/L"}, {"measurement": "neutralization IC50", "setting": "[12]", "value": "> 50", "unit": "mg/L"}, {"measurement": "neutralization IC50", "setting": "[13]", "value": 0.14, "unit": "mg/L"}, {"measurement": "neutralization IC50", "setting": "[14]", "value": 5, "unit": "mg/L"}, {"measurement": "neutralization IC50", "setting": "[15]", "value": 4.24, "unit": "mg/L"}, {"measurement": "neutralization IC50", "setting": "[16]", "value": "> 50", "unit": "mg/L"}, {"measurement": "neutralization IC50", "setting": "[17]", "value": 0.009, "unit": "mg/L"}, {"measurement": "neutralization IC50", "setting": "[18]", "value": 0.02, "unit": "mg/L"}, {"measurement": "neutralization IC50", "setting": "[19]", "value": 0.051, "unit": "mg/L"}, {"measurement": "neutralization IC50", "setting": "[20]", "value": 1.35, "unit": "mg/L"}, {"measurement": "neutralization IC50", "setting": "[21]", "value": "> 50", "unit": "mg/L"}, {"measurement": "neutralization IC50", "setting": "[22]", "value": 0.23, "unit": "mg/L"}, {"measurement": "neutralization IC50", "setting": "[23]", "value": 0.054, "unit": "mg/L"}, {"measurement": "neutralization IC50", "setting": "[24]", "value": 0.014, "unit": "mg/L"}, {"measurement": "neutralization IC50", "setting": "[25]", "value": 0.021, "unit": "mg/L"}, {"measurement": "neutralization IC50", "setting": "[26]", "value": 0.334, "unit": "mg/L"}, {"measurement": "neutralization IC50", "setting": "[27]", "value": 7.83, "unit": "mg/L"}, {"measurement": "neutralization IC50", "setting": "[28]", "value": 0.031, "unit": "mg/L"}, {"measurement": "neutralization IC50", "setting": "[29]", "value": 2.94, "unit": "mg/L"}, {"measurement": "neutralization IC50", "setting": "[30]", "value": 0.06, "unit": "mg/L"}, {"measurement": "neutralization IC50", "setting": "[31]", "value": 1.64, "unit": "mg/L"}, {"measurement": "neutralization IC50", "setting": "[32]", "value": 0.073, "unit": "mg/L"}, {"measurement": "neutralization IC50", "setting": "[33]", "value": 0.113, "unit": "mg/L"}, {"measurement": "neutralization IC50", "setting": "[34]", "value": 0.31, "unit": "mg/L"}, {"measurement": "neutralization IC50", "setting": "[35]", "value": "> 50", "unit": "mg/L"}, {"measurement": "neutralization IC50", "setting": "[36]", "value": "> 50", "unit": "mg/L"}, {"measurement": "neutralization IC50", "setting": "[37]", "value": 0.56, "unit": "mg/L"}, {"measurement": "neutralization IC50", "setting": "[38]", "value": 0.23, "unit": "mg/L"}, {"measurement": "neutralization IC50", "setting": "[39]", "value": 0.04, "unit": "mg/L"}, {"measurement": "neutralization IC50", "setting": "[40]", "value": 0.035, "unit": "mg/L"}, {"measurement": "neutralization IC50", "setting": "[41]", "value": 0.17, "unit": "mg/L"}, {"measurement": "neutralization IC50", "setting": "[42]", "value": 0.23, "unit": "mg/L"}, {"measurement": "neutralization IC50", "setting": "[43]", "value": "> 50", "unit": "mg/L"}]}
